The data set has as its target T1, PolpTN2delta311-923 (Thermococcus nautilus (plasmid pTN2), UniProt D6MY06 1-310).
T1 sequence: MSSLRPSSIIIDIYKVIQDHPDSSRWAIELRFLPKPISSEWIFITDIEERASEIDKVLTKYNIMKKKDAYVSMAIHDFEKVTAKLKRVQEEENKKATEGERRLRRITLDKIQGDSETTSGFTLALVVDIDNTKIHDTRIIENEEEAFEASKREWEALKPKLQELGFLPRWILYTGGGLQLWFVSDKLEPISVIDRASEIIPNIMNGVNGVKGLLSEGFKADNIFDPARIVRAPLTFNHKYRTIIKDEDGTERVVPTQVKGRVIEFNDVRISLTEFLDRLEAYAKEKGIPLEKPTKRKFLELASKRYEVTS
The data set can be described thus: EMSA; 10 mM Mg2+; EMSA: 50 mM Tris-HCl pH 8, 20 mM KCl, 10 mM MgCl2, 7.5 nM probe, 30 min at 65 C; 10% native PAGE in TBE. As to conditions: protein: recombinant; tags: His-tag (pET30, NdeI/XhoI); label: 32P; single strand. (In EMSA bound probe runs differently from free probe, usually more slowly.)

Regarding AGAGGGTTCAAAAAATGGTTTCACCCCAAA (ssDNA) [30 DNA], the binding result is recorded as “binds”.

As to AGAGGGUUCAAAAAAUGGUUUCACCCCAAA (ssRNA) [30 RT], the binding result is on record as “binds”.

The values above are taken from publication PMC3973330, “A highly divergent archaeo-eukaryotic primase from the Thermococcus nautilus plasmid, pTN2”.
